Assay results reported in patent US20220229068A1, “DETECTION OF PROTEIN TO PROTEIN INTERACTIONS” (THE GOVERNING COUNCIL OF THE UNIVERSITY OF TORONTO, priority 2019, published 2022).

Key:
Test in all cases: SIMPL ELISA, bait-IN/prey-CIC
[1] = target: BCL2L1 (prey, CIC format) (human) (UniProt Q07817)
[2] = target: GRB2 (prey, CIC format) (human) (UniProt P62993)
[3] = target: T1, DRAP1 (prey, CIC format) (human) (UniProt Q14919)
T1 sequence (looked up): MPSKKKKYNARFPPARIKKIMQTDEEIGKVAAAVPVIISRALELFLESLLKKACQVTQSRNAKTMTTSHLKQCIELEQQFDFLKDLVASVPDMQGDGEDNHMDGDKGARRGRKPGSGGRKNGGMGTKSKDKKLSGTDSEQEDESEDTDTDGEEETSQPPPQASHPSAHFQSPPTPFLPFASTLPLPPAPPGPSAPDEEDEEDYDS

[4] = target: CCNA1 (prey, CIC format) (human) (UniProt P78396)
[5] = target: CGB5 (prey, CIC format) (human) (UniProt P0DN86)
[6] = target: MCM3 (prey, CIC format) (human) (UniProt P25205)
[7] = target: T2, NCBP2 (prey, CIC format) (human) (UniProt P52298)
T2 sequence (looked up): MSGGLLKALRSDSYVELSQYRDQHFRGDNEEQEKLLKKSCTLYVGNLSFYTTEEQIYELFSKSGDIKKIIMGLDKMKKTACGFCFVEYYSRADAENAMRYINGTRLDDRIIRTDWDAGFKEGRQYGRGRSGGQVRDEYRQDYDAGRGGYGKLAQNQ

[8] = target: CD58 (prey, CIC format) (human) (UniProt P19256)
[9] = target: PCNA (prey, CIC format) (human) (UniProt P12004)
[10] = target: DDIT3 (prey, CIC format) (human) (UniProt P35638)
[11] = target: T3, NRG1 (prey, CIC format) (human) (UniProt Q02297)
T3 sequence (looked up): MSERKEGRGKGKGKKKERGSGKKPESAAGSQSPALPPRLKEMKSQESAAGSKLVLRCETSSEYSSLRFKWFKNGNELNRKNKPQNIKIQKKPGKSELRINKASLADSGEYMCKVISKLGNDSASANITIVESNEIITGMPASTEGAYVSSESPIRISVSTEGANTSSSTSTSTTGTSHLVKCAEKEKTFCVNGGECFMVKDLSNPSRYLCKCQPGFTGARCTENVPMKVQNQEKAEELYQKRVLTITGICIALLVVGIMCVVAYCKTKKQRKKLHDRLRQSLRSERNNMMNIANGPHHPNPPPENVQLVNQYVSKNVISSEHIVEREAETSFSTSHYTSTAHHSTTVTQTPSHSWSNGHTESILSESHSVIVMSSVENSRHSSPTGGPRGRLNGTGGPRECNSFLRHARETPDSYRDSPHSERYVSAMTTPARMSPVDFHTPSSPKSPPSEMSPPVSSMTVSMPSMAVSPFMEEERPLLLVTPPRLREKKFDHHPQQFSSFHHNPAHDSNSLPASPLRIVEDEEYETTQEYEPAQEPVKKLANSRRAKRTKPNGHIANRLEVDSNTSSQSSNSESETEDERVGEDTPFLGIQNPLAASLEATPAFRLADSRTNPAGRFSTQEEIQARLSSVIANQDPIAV

[12] = target: GRAP2 (prey, CIC format) (human) (UniProt O75791)
[13] = target: CKS1B (prey, CIC format) (human) (UniProt P61024)
[14] = target: T4, RB1 (prey, CIC format) (human) (UniProt P06400)
T4 sequence (looked up): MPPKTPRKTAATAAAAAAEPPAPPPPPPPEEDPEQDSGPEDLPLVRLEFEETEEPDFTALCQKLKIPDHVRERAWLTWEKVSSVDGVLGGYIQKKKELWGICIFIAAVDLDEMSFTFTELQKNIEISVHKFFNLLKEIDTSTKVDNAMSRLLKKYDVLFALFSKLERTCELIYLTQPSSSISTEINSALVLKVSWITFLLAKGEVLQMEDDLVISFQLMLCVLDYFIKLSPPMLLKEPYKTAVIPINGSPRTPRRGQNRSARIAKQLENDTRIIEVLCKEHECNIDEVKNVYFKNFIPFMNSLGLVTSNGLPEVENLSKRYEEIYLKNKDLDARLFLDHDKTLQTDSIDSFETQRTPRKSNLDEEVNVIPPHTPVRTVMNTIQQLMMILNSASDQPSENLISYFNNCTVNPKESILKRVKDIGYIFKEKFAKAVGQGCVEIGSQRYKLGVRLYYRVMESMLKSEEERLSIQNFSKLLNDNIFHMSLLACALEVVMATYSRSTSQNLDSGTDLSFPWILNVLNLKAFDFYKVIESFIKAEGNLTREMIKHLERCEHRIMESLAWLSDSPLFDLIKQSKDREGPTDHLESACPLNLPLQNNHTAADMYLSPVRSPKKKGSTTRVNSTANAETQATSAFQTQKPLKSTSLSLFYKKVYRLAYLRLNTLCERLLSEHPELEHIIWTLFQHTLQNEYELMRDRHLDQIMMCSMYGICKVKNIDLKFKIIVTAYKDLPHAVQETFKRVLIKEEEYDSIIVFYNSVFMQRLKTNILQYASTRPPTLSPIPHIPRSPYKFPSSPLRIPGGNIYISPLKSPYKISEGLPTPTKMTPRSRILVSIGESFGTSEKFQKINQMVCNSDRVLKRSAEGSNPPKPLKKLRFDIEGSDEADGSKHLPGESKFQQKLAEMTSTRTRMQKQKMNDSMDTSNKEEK

[15] = target: PPP3R1 (prey, CIC format) (human) (UniProt P63098)
[16] = target: T5, LAT (prey, CIC format) (human) (UniProt O43561)
T5 sequence (looked up): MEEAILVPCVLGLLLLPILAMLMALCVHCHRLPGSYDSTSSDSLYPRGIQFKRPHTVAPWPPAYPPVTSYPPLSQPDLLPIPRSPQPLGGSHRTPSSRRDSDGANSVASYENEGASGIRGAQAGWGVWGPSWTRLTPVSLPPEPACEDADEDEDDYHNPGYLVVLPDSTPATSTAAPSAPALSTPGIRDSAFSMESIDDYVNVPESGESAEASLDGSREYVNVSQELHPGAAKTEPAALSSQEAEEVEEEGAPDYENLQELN

[17] = target: ZBTB16 (prey, CIC format) (human) (UniProt Q05516)
[18] = target: T6, PEX11B (prey, CIC format) (human) (UniProt O96011)
T6 sequence (looked up): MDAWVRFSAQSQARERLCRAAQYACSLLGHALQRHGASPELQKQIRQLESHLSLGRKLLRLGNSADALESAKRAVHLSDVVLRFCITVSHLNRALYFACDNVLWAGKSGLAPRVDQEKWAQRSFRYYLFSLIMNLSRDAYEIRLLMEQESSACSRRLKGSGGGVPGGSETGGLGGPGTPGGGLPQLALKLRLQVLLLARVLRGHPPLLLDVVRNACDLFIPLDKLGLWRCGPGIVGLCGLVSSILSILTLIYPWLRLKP

[19] = target: NFE2L1 (prey, CIC format) (human) (UniProt Q14494)
[20] = target: TNFRSF10B (prey, CIC format) (human) (UniProt O14763)
[21] = target: T7, S100B (prey, CIC format) (human) (UniProt P04271)
T7 sequence (looked up): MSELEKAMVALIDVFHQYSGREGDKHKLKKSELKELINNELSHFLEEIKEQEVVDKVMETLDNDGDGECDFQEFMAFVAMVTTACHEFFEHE

[22] = target: T8, MCM5 (prey, CIC format) (human) (UniProt P33992)
T8 sequence (looked up): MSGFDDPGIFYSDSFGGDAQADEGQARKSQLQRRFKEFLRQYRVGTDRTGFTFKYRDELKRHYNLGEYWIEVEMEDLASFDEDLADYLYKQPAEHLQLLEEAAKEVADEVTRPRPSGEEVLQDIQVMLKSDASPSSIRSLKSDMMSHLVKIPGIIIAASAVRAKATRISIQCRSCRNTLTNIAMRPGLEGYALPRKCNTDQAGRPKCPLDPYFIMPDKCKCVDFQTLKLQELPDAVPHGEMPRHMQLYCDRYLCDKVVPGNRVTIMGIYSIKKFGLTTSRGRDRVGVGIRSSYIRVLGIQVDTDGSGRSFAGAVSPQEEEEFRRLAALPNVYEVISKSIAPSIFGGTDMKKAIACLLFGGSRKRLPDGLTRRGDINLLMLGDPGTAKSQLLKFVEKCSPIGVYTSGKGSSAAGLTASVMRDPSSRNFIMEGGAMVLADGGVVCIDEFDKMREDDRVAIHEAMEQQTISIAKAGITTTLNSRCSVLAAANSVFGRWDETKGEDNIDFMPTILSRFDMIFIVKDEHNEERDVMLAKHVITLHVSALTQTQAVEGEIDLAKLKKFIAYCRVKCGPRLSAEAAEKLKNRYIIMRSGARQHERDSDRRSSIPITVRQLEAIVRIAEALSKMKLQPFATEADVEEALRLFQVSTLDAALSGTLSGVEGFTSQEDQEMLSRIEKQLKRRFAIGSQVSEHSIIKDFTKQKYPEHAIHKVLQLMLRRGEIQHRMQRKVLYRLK

[23] = target: T9, BATF (prey, CIC format) (human) (UniProt Q16520)
T9 sequence (looked up): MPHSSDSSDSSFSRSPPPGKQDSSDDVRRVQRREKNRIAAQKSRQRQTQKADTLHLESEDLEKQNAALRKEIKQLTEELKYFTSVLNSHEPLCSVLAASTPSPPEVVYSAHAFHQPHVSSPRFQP

[24] = target: PEX16 (prey, CIC format) (human) (UniProt Q9Y5Y5)
[25] = target: CASP3 (prey, CIC format) (human) (UniProt P42574)
[26] = target: T10, DCP1A (prey, CIC format) (human) (UniProt Q9NPI6)
T10 sequence (looked up): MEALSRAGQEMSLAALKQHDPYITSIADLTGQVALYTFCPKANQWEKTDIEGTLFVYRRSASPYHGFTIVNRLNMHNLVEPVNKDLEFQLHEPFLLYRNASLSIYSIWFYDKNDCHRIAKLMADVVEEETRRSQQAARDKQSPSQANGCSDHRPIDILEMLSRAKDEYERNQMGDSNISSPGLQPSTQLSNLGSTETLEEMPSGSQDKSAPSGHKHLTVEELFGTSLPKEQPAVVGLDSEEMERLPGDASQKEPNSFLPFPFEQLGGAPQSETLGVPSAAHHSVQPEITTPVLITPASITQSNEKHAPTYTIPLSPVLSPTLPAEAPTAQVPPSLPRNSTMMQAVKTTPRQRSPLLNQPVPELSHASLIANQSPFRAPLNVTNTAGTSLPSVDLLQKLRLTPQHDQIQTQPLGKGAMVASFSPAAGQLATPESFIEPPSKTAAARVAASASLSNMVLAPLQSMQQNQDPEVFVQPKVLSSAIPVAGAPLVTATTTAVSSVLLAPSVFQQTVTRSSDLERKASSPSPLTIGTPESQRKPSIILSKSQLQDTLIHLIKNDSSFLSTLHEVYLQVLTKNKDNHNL

Sequence of PCNA (prey, CIC format) (human) (P12004 whole entry): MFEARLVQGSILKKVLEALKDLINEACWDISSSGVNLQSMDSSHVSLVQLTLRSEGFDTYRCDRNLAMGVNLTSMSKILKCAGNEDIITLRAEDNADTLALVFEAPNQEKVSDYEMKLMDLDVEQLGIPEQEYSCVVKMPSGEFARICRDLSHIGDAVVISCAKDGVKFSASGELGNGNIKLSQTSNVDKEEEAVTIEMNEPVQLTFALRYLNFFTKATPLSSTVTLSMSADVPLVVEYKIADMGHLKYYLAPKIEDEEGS
Sequence of MCM3 (prey, CIC format) (human) (P25205 whole entry): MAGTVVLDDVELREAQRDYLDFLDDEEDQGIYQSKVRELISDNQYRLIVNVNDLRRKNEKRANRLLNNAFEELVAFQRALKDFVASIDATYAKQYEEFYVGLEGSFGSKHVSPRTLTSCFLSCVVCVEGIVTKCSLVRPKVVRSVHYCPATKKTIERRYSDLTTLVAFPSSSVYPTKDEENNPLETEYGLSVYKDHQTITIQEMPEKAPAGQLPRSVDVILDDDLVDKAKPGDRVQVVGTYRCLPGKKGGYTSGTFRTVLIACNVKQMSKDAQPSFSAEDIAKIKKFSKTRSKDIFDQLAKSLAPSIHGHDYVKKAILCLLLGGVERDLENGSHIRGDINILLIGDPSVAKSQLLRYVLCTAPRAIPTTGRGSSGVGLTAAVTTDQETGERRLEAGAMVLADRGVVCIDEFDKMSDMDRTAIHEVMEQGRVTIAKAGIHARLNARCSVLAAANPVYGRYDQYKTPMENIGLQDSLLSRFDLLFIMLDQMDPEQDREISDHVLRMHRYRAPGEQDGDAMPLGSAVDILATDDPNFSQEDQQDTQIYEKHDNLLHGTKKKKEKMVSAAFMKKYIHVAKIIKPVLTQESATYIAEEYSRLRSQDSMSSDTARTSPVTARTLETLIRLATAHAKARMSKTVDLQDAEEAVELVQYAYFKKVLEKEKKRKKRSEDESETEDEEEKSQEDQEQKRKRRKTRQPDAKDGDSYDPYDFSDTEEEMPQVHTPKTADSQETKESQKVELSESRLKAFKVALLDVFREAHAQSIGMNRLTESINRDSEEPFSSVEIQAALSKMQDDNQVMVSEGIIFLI
Sequence of S100A1 (bait, IN format) (P23297 whole entry): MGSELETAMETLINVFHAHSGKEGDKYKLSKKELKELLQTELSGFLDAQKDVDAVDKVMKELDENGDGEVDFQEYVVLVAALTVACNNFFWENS
Sequence of NFE2L1 (prey, CIC format) (human) (Q14494 whole entry): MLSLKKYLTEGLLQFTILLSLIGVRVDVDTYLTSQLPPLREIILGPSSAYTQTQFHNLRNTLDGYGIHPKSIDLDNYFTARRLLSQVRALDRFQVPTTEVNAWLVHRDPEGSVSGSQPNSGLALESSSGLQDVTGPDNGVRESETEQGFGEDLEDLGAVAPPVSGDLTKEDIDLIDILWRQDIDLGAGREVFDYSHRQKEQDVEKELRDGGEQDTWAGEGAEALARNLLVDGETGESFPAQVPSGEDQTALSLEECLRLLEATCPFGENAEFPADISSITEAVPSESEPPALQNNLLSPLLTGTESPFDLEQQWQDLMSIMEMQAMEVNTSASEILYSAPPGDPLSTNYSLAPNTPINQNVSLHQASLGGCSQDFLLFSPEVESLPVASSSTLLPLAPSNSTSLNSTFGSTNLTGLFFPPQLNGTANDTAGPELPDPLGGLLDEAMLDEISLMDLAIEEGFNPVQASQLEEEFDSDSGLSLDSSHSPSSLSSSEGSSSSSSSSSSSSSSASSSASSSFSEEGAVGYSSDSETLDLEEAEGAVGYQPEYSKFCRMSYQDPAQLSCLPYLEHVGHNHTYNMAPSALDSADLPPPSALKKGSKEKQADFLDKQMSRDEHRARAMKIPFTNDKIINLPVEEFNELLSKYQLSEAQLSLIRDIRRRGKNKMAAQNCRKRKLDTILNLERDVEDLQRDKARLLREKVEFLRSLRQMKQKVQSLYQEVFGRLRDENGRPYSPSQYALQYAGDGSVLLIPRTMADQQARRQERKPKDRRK
Sequence of HDAC1 (bait, IN format) (Q13547 whole entry): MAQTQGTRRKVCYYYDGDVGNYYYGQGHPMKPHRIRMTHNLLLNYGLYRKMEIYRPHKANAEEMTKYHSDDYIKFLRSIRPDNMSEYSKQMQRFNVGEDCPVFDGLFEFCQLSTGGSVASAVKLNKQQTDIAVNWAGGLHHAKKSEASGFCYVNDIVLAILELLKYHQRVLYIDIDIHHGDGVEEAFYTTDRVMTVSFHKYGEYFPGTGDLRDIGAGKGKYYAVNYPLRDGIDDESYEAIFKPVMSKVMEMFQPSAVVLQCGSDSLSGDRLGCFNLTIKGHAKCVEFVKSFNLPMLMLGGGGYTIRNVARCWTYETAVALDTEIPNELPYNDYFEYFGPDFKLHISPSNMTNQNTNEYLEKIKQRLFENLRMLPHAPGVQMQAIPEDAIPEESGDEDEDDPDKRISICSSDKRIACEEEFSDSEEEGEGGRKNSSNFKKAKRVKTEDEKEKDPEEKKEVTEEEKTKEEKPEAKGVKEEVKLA
Sequence of GRB2 (prey, CIC format) (human) (P62993 whole entry): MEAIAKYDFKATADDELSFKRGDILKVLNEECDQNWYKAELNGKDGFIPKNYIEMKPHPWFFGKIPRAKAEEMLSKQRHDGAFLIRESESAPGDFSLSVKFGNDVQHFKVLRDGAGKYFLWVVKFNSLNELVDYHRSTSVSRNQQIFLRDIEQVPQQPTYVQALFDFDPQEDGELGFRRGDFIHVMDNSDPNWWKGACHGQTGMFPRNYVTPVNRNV
Sequence of PEX16 (prey, CIC format) (human) (Q9Y5Y5 whole entry): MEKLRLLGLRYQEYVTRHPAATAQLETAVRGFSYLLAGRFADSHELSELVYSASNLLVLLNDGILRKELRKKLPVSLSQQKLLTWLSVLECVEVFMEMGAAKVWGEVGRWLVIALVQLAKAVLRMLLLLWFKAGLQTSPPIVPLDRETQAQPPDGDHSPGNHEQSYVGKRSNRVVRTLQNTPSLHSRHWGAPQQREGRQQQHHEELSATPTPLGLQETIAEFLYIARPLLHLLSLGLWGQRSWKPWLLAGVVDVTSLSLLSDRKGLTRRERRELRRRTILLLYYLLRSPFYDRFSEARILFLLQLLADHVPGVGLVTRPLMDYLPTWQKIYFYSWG
Sequence of ZBTB16 (prey, CIC format) (human) (Q05516 whole entry): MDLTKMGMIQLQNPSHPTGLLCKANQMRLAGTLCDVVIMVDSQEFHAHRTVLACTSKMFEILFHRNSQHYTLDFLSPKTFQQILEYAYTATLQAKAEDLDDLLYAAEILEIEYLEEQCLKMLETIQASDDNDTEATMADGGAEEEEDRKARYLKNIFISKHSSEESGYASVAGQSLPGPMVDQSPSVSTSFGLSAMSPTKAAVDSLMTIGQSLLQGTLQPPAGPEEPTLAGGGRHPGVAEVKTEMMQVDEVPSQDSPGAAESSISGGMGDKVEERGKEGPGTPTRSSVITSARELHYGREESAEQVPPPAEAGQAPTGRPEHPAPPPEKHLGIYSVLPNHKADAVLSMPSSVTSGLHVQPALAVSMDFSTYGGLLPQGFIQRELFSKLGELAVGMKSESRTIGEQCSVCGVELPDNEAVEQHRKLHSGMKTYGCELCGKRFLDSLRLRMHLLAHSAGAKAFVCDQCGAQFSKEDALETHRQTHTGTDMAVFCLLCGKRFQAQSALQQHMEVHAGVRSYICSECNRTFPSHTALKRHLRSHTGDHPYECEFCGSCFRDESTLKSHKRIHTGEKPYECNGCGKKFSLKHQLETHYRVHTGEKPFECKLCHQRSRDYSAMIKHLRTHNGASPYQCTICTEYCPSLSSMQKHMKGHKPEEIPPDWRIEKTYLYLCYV
Sequence of BCL2L1 (prey, CIC format) (human) (Q07817 whole entry): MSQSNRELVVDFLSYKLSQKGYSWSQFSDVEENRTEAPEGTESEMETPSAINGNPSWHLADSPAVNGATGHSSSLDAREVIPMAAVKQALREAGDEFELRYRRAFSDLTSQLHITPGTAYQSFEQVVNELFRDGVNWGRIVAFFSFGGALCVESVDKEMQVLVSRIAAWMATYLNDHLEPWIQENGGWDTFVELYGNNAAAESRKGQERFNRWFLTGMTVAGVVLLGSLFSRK
Sequence of DDIT3 (prey, CIC format) (human) (P35638 whole entry): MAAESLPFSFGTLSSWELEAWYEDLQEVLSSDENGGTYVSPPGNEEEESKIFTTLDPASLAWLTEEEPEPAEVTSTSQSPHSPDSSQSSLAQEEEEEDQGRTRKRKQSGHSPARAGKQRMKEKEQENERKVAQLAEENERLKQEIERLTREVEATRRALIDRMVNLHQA
Sequence of CASP3 (prey, CIC format) (human) (P42574 whole entry): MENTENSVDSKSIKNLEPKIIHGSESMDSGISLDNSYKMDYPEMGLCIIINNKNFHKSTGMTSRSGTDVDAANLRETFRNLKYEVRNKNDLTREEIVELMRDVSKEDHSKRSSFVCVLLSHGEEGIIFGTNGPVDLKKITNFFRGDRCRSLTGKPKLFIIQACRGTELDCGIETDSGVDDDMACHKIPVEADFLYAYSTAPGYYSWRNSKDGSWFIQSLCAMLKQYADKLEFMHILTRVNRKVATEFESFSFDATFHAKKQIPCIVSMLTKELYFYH
Sequence of CCNA1 (prey, CIC format) (human) (P78396 whole entry): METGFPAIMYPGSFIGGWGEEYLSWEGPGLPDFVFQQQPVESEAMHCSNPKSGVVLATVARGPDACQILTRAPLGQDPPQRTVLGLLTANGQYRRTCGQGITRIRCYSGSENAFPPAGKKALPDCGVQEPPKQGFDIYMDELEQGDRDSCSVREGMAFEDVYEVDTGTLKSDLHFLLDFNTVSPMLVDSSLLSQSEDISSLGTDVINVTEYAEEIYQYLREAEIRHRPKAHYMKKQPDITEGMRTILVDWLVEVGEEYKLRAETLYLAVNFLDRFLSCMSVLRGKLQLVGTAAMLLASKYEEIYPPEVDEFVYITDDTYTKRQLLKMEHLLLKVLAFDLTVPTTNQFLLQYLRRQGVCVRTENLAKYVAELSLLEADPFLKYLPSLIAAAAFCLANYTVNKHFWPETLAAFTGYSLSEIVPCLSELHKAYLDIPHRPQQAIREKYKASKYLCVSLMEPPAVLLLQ
Sequence of CKS1B (prey, CIC format) (human) (P61024 whole entry): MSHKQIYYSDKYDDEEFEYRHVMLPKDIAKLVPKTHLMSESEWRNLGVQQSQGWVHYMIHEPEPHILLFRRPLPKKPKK

In the case of “CBLB (bait, IN format) (from UniProt Q13191 1-982)”, the PLU mean [1] is reported as 0.272 and the PLU mean [2] is reported as 2.61.
“CDKN1B (bait, IN format) (from UniProt P46527 1-198)” gave a PLU mean [3] of 0.229 and a PLU mean [4] of 0.686.
“CGA (bait, IN format) (from UniProt P01215 25-116) (ligand)” was tested, and the PLU mean [5] was 0.435, the PLU mean [6] was 0.0738 and the PLU mean [7] was 0.0363. It also gave a PLU mean [8] of 0.131.
With “ERBB3 (bait, IN format) (from UniProt P21860 20-1342) (receptor)” the PLU mean [9] was 0.0812, the PLU mean [10] was 0.28 and the PLU mean [11] was 1.22.
“FEN1 (bait, IN format) (from UniProt P39748 1-380) (enzyme)” was tested, and the PLU mean [12] was 0.342 and the PLU mean [9] was 0.349.
For “HBA2 (bait, IN format) (from UniProt P69905 1-142)”, the PLU mean [13] was 0.171.
Substance “HDAC1 (bait, IN format) (from UniProt Q13547 1-482) (enzyme)” has a PLU mean [14] of 0.54, a PLU mean [15] of 0.247 and a PLU mean [16] of 0.222. The PLU mean [17] was 0.492.
“MAFG (bait, IN format) (from UniProt O15525 1-162)” gave a PLU mean [18] of 0.341, a PLU mean [19] of 1.72 and a PLU mean [20] of 0.459.
Substance “MCM2 (bait, IN format) (from UniProt P49736 1-904)” has a PLU mean [21] of 0.102, a PLU mean [22] of 0.35 and a PLU mean [6] of 0.938.
“PEX19 (bait, IN format) (from UniProt P40855 1-299)” showed a PLU mean [23] of 0.154, a PLU mean [18] of 1.18 and a PLU mean [24] of 1.09.
Substance “S100A1 (bait, IN format) (from UniProt P23297 1-94)” has a PLU mean [21] of 0.822 and a PLU mean [25] of 0.158.
Substance “SMAD4 (bait, IN format) (from UniProt Q13485 1-552)” has a PLU mean [26] of 0.398 and a PLU mean [16] of 0.215.
